Reference: article PMC3041754, “Functional Mutation of Multiple Solvent-Exposed Loops in the Ecballium elaterium Trypsin Inhibitor-II Cystine Knot Miniprotein” (PLoS ONE, 2011)
Where two headings read alike, the source gives them in different places. Where a SMILES comes first, the peptide text is derived from it. Bridges are numbered along the chain shown (N, C = ends). Where no end group is shown, it is not given here. The star is where a group is joined. DOTA = O=C(O)CN1CCN(CC(=O)O)CCN(CC(=O)*)CCN(CC(=O)O)CC1

Legend:
[1] = test system: integrin receptors expressed on U87MG glioblastoma cells; experiment: Competition binding with 125I-echistatin to U87MG cells; parameters: species or system human; conditions: competition with 0.06 nM 125I-echistatin, 2×10^5 U87MG cells, IBB, room temperature, 3 h, gamma counting; average ± SD of experiments on three separate days
Experimental: Competition binding assays were performed as previously described, [60] to measure the relative binding affinities of engineered knottin peptides and echistatin. Briefly, 2×10^5 U87MG or K562 cells were incubated with 0.06 nM ^125I-labeled echistatin and varying concentrations of peptides in IBB at room temperature for 3 h. The cell-bound radioactivity remaining after washing was determined by gamma-counting. Half-maximal inhibitory concentration (IC50) values were determined by non-linear regression analysis using KaleidaGraph software (Synergy Software), and are presented as the average of experiments performed on three separate days.

[2] = Serum stability in mouse serum (radio-HPLC); type: in vitro ADME; conditions: 50% mouse serum, 37°C, reversed-phase radio-HPLC (Vydac C18), area under the entire peak
Experimental: (§1) Aliquots containing up to 400 µCi of ^64Cu-DOTA-knottin 3-4A were incubated in 50% mouse serum for up to 24 h. At various time points, samples were mixed with an equal volume of 99.9% water/0.1% TFA, further acidified with ∼1% (v/v) TFA, and centrifuged to remove precipitants. Soluble fractions were filtered with a 0.2 µm microcentrifuge filter (Corning Costar Spin-X filter) and analyzed by reversed-phase radio-HPLC using a Vydac C18 column. For metabolic stability analysis, anesthetized nude mice bearing U87MG tumor xenografts were injected with 200–400 µCi of ^64Cu-DOTA-knottin 3-4A via the tail vein, and were euthanized at 1 h post injection. Tumor, kidney, and liver tissues were homogenized with a mortar/pestle in 1 ml DMF. The lysates were acidified, centrifuged, and filtered using a 0.2 µm Costar Spin-X microcentrifuge filter to isolate soluble metabolites. Filtrates were injected onto a Vydac C18 column and analyzed by reversed-phase HPLC. Fractions were collected every 1 min and analyzed by gamma counting to determine the counts per minute (cpm). Urine samples were collected 1 h post injection and were also analyzed by radio-HPLC. The intact radiotracer elutes at approximately 15 min, and the major hydrophilic metabolites and free copper elute with the column dead volume.

[3] = Biodistribution in U87MG xenograft mice (gamma counting); type: in vivo, mouse; conditions: female, athymic nude (nu/nu), mouse, iv, total radioactivity; for tissue to tissue ratio at 4 h: U87MG xenograft mice
Experimental: (§2) Animal procedures were carried out according to a protocol approved by Stanford University Administrative Panels on Laboratory Animal Care (APLAC Protocol 11580). U87MG glioblastoma cells were maintained at 37°C/5% CO2 in Dulbecco's Modified Eagle Medium, 10% heat-inactivated fetal bovine serum, and penicillin-streptomycin (all from Invitrogen). Female athymic nude mice (nu/nu), obtained at 4–6 weeks of age (Charles River Laboratories, Inc., Wilmington, MA), were injected subcutaneously in the right or left shoulder with ∼10^7 U87MG cells suspended in 100 µL of PBS. Mice were used for in vivo imaging studies when their tumors reached approximately 10 millimeters in diameter.
(§3) Anesthetized nude mice bearing U87MG tumor xenografts were injected with ∼50–100 µCi (∼0.25–0.5 nmol) of ^64Cu-DOTA-knottin 3-4A via the tail vein, and were euthanized at 1, 4, and 24 h post injection. Blood, bone, brain, heart, kidney, liver, lung, muscle, pancreas, skin, spleen, and tumor tissue were removed and weighed, and their radioactivity levels (counts per minute) were measured by gamma counting. The radioactivity uptake in the tumor and normal tissue was reported as the percent injected dose per gram (%ID/g) of tissue and represent the mean and standard deviation of experiments performed on three mice. For each mouse, the activity of tissue samples was calibrated against a pre-measured aliquot of the radiotracer and normalized to the whole bodyweight and to the residual radioactivity present in the tail. To test integrin-targeting specificity, U87MG tumor-bearing mice (n = 3) were co-injected with ^64Cu-DOTA-knottin 3-4A and 330 µg (∼0.5 µmol) of unlabeled c(RGDyK), and biodistribution of the radiolabeled peptide was determined 1 h after injection.

[4] = test system: U87MG tumor xenografts; experiment: as above; type: in vivo, mouse
Experimental: as §2, §3

[5] = test system: MDA-MB-435 melanoma xenograft; experiment: Tumor uptake in MDA-MB-435 melanoma xenograft model; type: in vivo; conditions: lower αvβ3 integrin levels, data not shown
[6] = test system: U87MG tumor xenografts; experiment: MicroPET imaging in U87MG xenograft mice; type: in vivo, mouse
Experimental: as §2
U87MG tumor-bearing mice (n = 3 or more for each probe) were injected with ∼100 µCi (∼0.5 nmol) of probe via the tail vein and imaged with a microPET R4 rodent model scanner (Siemens Medical, Knoxville, TN) using 5 min static scans. Images were reconstructed by a two-dimensional ordered expectation maximum subset algorithm and calibrated as previously described. ROIs were drawn over the tumor on decay-corrected whole body images using ASIPro VM software (Siemens Medical). ROIs were converted to counts/g/min, and %ID/g values were determined assuming a tissue density of 1 g/mL. No attenuation correction was performed. For the blocking experiments, mice were co-injected with 330 µg (∼0.5 µmol) of unlabeled c(RGDyK), a pentapeptide that binds to αvβ3 and αvβ5 integrins, [62] at a similar receptor binding site as the engineered knottin peptides.

[7] = In vivo metabolic stability in U87MG xenograft mice (radio-HPLC); parameters: species or system mouse
Experimental: as §1

[8] = test system: integrin receptors expressed on U87MG glioblastoma cells; conditions: read-out: IC50, competition binding of 125I-echistatin to U87MG cells; cited from earlier work
Experimental: The engineered knottin peptides were tested for their ability to compete with ^125I-echistatin for binding to integrin receptors expressed on U87MG glioblastoma cells, which express ∼10^5 αvβ3 integrin receptors per cell. Echistatin, a polypeptide found in snake venom, binds to multiple integrin receptors with high affinity, [27] and was used as a positive control. […] Both engineered loops were capable of binding to integrins with high affinity, as confirmed by measurements performed with knottins containing scrambled RDG control loops. […] In one example, c(RGDyK) dimers and higher order oligomers have been created by chemical conjugation through addition of a glutamate branching residue.

[9] = U87MG xenograft mice, summary of imaging and biodistribution

## CSCC[C@@H]1NC(=O)[C@H](CC(=O)O)NC(=O)CNC(=O)[C@H](CCCNC(=N)N)NC(=O)[C@H](C)NC(=O)[C@H](CCC(=O)O)NC(=O)[C@H](CCCNC(=N)N)NC(=O)[C@@H]2CSSC[C@@H]3NC(=O)[C@H](CO)NC(=O)[C@H]([C@@H](C)O)NC(=O)[C@@H]4CCCN4C(=O)[C@H](C)NC(=O)[C@H](Cc4c[nH]c5ccccc45)NC(=O)[C@H](CC(=O)O)NC(=O)CNC(=O)[C@H](CCCNC(=N)N)NC(=O)CNC(=O)[C@H](CCC(N)=O)NC(=O)[C@@H]4CCCN4C(=O)[C@@H](NC(=O)CNC(=O)CN4CCN(CC(=O)O)CCN(CC(=O)O)CCN(CC(=O)O)CC4)CSSC[C@H](NC(=O)CNC(=O)[C@H](C)NC(=O)[C@H](CC(C)C)NC(=O)[C@H](CSSC[C@@H](C(=O)NCC(N)=O)NC(=O)[C@H]([C@@H](C)O)NC(=O)[C@H](CCCNC(=N)N)NC(=O)[C@@H]4CCCN4C1=O)NC(=O)[C@H](CC(=O)O)NC(=O)[C@H](CO)NC(=O)[C@H](CC(=O)O)NC(=O)[C@H](CCC(N)=O)NC(=O)[C@H](CO)NC3=O)C(=O)N[C@@H](C(C)C)C(=O)N2 [DOTA-3-4A] ({DOTA}-GCPQGRGDWAPTSCSQDSDCLAGCVCREARGDMPRTCG-NH2; disulfide 2-24, 14-26, 20-37)
[1]
  IC50: 8 ± 1 nM

## CSCC[C@@H]1NC(=O)[C@H](CC(=O)O)NC(=O)CNC(=O)[C@H](CCCNC(=N)N)NC(=O)[C@H](C)NC(=O)[C@H](CCC(=O)O)NC(=O)[C@H](CCCNC(=N)N)NC(=O)[C@@H]2CSSC[C@@H]3NC(=O)[C@H](CO)NC(=O)[C@H]([C@@H](C)O)NC(=O)[C@@H]4CCCN4C(=O)[C@H](C)NC(=O)[C@H](Cc4c[nH]c5ccccc45)NC(=O)[C@H](CC(=O)O)NC(=O)CNC(=O)[C@H](CCCNC(=N)N)NC(=O)CNC(=O)[C@H](CCC(N)=O)NC(=O)[C@@H]4CCCN4C(=O)[C@@H](NC(=O)CNC(=O)CN4CCN(CC(=O)O)CCN(CC(=O)O)CCN(CC(=O)O)CC4)CSSC[C@H](NC(=O)CNC(=O)[C@H](C)NC(=O)[C@H](CC(C)C)NC(=O)[C@H](CSSC[C@@H](C(=O)NCC(N)=O)NC(=O)[C@H]([C@@H](C)O)NC(=O)[C@H](CCCNC(=N)N)NC(=O)[C@@H]4CCCN4C1=O)NC(=O)[C@H](CC(=O)O)NC(=O)[C@H](CO)NC(=O)[C@H](CC(=O)O)NC(=O)[C@H](CCC(N)=O)NC(=O)[C@H](CO)NC3=O)C(=O)N[C@@H](C(C)C)C(=O)N2 [^64Cu-DOTA-knottin 3-4A, metal not drawn] ({DOTA}-GCPQGRGDWAPTSCSQDSDCLAGCVCREARGDMPRTCG-NH2; disulfide 2-24, 14-26, 20-37)
[2]; 4 h, read-out: intact probe remaining in serum, 4 h
  remaining at 4 h: 55%
[2]; 24 h
  intact probe remaining in serum, 24 h: ~30%
[2]; 24 h, read-out: intact probe remaining in serum, 24 h
  remaining at 24 h: 30%
[3]; calculated from 1 h and 24 h tumor radioactivity, read-out: radiotracer washout rate from tumor, biodistribution
  tumor washout rate: 0.06 %ID/g
[3]; tumor / muscle, read-out: tumor-to-muscle (T/M) ratio, 4 h post injection
  tissue to tissue ratio at 4 h: 31 ± 7
[3]; tumor / whole blood, read-out: tumor-to-blood (T/B) ratio, 4 h post injection
  tissue to tissue ratio at 4 h: 27 ± 3
[4]; U87MG xenograft mice
  muscle radioactivity, biodistribution: < 0.4 %ID/g
[4]; U87MG xenograft mice, 1-24 h
  heart radioactivity, biodistribution, throughout the study: ~0.3 %ID/g
[4]; U87MG xenograft mice, n = 3
  liver radioactivity, biodistribution, 1 h post injection: ~1 %ID/g
  liver radioactivity, biodistribution, 24 h post injection: ~2 %ID/g
  lung radioactivity, biodistribution, 1 h post injection: ~1 %ID/g
  lung radioactivity, biodistribution, 24 h post injection: ~0.6 %ID/g
[4]; U87MG xenograft mice, n = 3, mean ± SD
  kidney radioactivity, biodistribution, 24 h post injection: 2.67±0.22 %ID/g
[4]; U87MG xenograft nude mice, gamma counting, n = 3, mean ± SD
  tumor uptake, biodistribution, 24 h post injection: 2.56±0.40 %ID/g
[4]; U87MG xenograft nude mice, tail vein ∼50–100 µCi, gamma counting, n = 3, mean ± SD
  tumor uptake, biodistribution, 1 h post injection: 3.92±0.70 %ID/g
[4]; co-injection of 1000-fold molar excess of unlabeled c(RGDyK) (330 µg), n = 3, p<0.05
  tumor uptake, biodistribution, 1 h post injection, blocked: 0.66±0.17 %ID/g
[5]
  tumor uptake, 1 h post injection: 0.82±0.05 %ID/g
[6]; U87MG xenograft mice
  kidney uptake, microPET, 1 h post injection: 10-12 %ID/g
  kidney uptake, microPET, 24 h post injection: 3–4 %ID/g
[6]; U87MG xenograft mice, 1-24 h
  liver uptake, microPET, throughout the imaging study: ~2 %ID/g
[6]; [9]
  kidney uptake, 1−4 h post-injection (summary in discussion): 8–12 %ID/g
  kidney uptake, 24 h (summary in discussion): 2–4 %ID/g
  liver uptake (summary in discussion): 1–2 %ID/g
[6]; U87MG xenograft nude mice, tail vein ∼100 µCi, n = 3, mean ± SD
  tumor uptake, microPET, 1 h post injection: 3.51±0.83 %ID/g
[6]; U87MG xenograft nude mice, tail vein, n = 3, mean ± SD
  tumor uptake, microPET, 24 h post injection: 1.97±0.24 %ID/g
[6]; co-injection of 1000-fold molar excess of unlabeled c(RGDyK) (330 µg), p<0.05
  tumor uptake, microPET, 1 h post injection, blocked: 0.53± 0.03 %ID/g
[7]; U87MG xenograft mice, tail vein 200–400 µCi, liver homogenate in DMF, reversed-phase HPLC and gamma counting
  intact radiotracer recoverable from liver, 1 h post injection: < 40%
[7]; U87MG xenograft mice, tail vein 200–400 µCi, tumor homogenate in DMF, reversed-phase HPLC and gamma counting
  intact radiotracer recoverable from tumor, 1 h post injection: < 40%
[7]; kidney homogenate, radio-HPLC, result in words
  metabolic stability, kidneys, 1 h post injection: a hydrophilic metabolite (or free copper) is responsible for the majority of the radioactive signal
[7]; urine samples, radio-HPLC, result in words
  metabolic stability, urine, 1 h post injection: intact knottin radiotracer is excreted through the bladder

## ECESGPCCRNCKFLKEGTICKRARGDDMDDYCNGKTCDCPRNPHKGPAT (disulfide 2-11, 7-32, 8-37, 20-39 (inferred)) [Echistatin, reference compound]
[1]
  IC50: 4.9 ± 0.1 nM

## c(RGDyK)
[8]
  IC50: 203 ± 32 nM
